Measurements taken from patent US20210395318A1 (Molecular Partners, published 2021).

B1: SMA104 (designed binder)
chain: MRGSHHHHHHGSDLGEKLLVAALYGQDDEVRELLKAGADVNAKDQWGLTPLHKAALQGHLEIVEVLLKAGADVNAKDERGHTPLHWAARFGHLEIVEVLLKAGADVNAQDQKGYTPADLAALWGHEDIAEVLQKAAGSPTPTPTTPTPTPTTPTPTPTGSDLGKKLLQAARAGQLDEVRELLKAGADVNAKDTWGFTPLHIAAESGHLEIVEVLLKAGADVNAKDVQGRTPLHIAAHSGHLEIVEVLLKAGADVNAKDFRGWTPLHLAAWSGHLEIVEILLKAGADVNAQDKSGKTPADLAARAGHQDIAEVLQKAAGSPTPTPTTPTPTPTTPTPTPTGSDLGKKLLQAARAGQLDEVRELLKAGADVNAKDTWGFTPLHIAAESGHLEIVEVLLKAGADVNAKDVQGRTPLHIAAHSGHLEIVEVLLKAGADVNAKDFRGWTPLHLAAWSGHLEIVEILLKAGADVNAQDKSGKTPADLAARAGHQDIAEVLQKAA
B2: SMA087 (designed binder)
chain: MRGSHHHHHHGSDLGKKLLEAARAGQDDEVRELLKAGADVNAKDYFSHTPLHLAARNGHLKIVEVLLKAGADVNAKDFAGKTPLHLAAADGHLEIVEVLLKAGADVNAQDIFGKTPADIAADAGHEDIAEVLQKAAGSPTPTPTTPTPTPTTPTPTPTGSDLGEKLLVAALYGQDDEVRELLKAGADVNAKDQWGLTPLHKAALQGHLEIVEVLLKAGADVNAKDERGHTPLHWAARFGHLEIVEVLLKAGADVNAQDQKGYTPADLAALWGHEDIAEVLQKAAGSPTPTPTTPTPTPTTPTPTPTGSDLGKKLLQAARAGQLDEVRELLKAGADVNAKDTWGFTPLHIAAESGHLEIVEVLLKAGADVNAKDVQGRTPLHIAAHSGHLEIVEVLLKAGADVNAKDFRGWTPLHLAAWSGHLEIVEILLKAGADVNAQDKSGKTPADLAARAGHQDIAEVLQKAA

Experiments:
Experiment in all cases: cell-based or functional assay
[1] = target: T1, human CD40 on primary human B cells or human monocyte-derived dendritic cells (human, UniProt P25942 21-277)
[2] = target: T1, human CD40 on primary human B cells or …; remark: listed apart in the source
[3] = target: T1, human CD40 on primary human B cells or …; remark: listed apart in the source
[4] = target: T1, human CD40 on primary human B cells or …; remark: listed apart in the source

T1 sequence (P25942 21-277 H80K/K81H limits assumed): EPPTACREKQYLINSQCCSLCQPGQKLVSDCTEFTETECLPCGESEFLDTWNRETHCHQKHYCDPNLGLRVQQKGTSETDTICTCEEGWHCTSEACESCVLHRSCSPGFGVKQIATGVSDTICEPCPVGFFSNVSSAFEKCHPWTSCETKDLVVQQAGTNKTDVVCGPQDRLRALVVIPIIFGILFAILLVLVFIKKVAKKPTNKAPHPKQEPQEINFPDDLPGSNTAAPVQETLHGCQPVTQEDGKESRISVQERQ

Row | Binder | Efficacy [MFI at highest dose], MFI CD86, human B cells with WT-CHO cells (no FAP), w/o HSA [1] [MFI] | Efficacy at highest dose, % CD86, human B cells with WT-CHO cells (no FAP), w/o HSA [1] [%] | fold increase of efficacy against SMA014, CD86 upregulation on human B cells with FAP expressing CHO cells [2] [fold] | fold increase of potency against SMA014, CD86 upregulation on human B cells with FAP expressing CHO cells [2] [fold] | EC50, % CD86, human B cells with FAP-CHO cells, w/o HSA [3] [nM] | EC50, MFI CD86, human B cells with FAP-CHO cells, w/o HSA [3] [nM] | Efficacy [MFI at highest dose], MFI CD86, human B cells with FAP-CHO cells, w/o HSA [4] [MFI] | Efficacy at highest dose, % CD86, human B cells with FAP-CHO cells, w/o HSA [4] [%] | Efficacy [MFI at highest dose], MFI CD86, human B cells with WT-CHO cells (no FAP), w HSA [1] [MFI] | Efficacy at highest dose, % CD86, human B cells with WT-CHO cells (no FAP), w HSA [1] [%] | EC50, % CD86, human B cells with FAP-CHO cells, w HSA [3] [nM] | EC50, MFI CD86, human B cells with FAP-CHO cells, w HSA [3] [nM] | Efficacy [MFI at highest dose], MFI CD86, human B cells with FAP-CHO cells, w HSA [4] [MFI] | Efficacy at highest dose, % CD86, human B cells with FAP-CHO cells, w HSA [4] [%]
1 | B1 | 252 | 46 | 2 | 20 | 0.23 | 0.74 | 6270 | 86.8 |  |  |  |  |  | 
2 | B2 | 291 | 12.5 |  |  | 11.4 | 28.9 | 1640 | 43.4 | 299 | 13.7 | 72.3 | 52 | 799 | 27
